Test [1] concerns the target T1, cynomolgus monkey CD64 (cynomolgus monkey, UniProt A0A2K5U901 33-309).
Test [2] deals with cynomolgus monkey CD32a (cynomolgus monkey).
Test [3] deals with cynomolgus monkey CD32b (cynomolgus monkey).
Test [4] deals with T1, cynomolgus monkey CD64. The source holds these as a separate data set.
The target of test [5] is cynomolgus monkey CD32a (cynomolgus monkey). This is another data set of the same source.
Test [6] addresses cynomolgus monkey CD32b (cynomolgus monkey). This is another data set of the same source.

Where two headings read alike, the source gives them in different places.

T1 sequence (A0A2K5U901 entry or part of it limits assumed, form in doubt): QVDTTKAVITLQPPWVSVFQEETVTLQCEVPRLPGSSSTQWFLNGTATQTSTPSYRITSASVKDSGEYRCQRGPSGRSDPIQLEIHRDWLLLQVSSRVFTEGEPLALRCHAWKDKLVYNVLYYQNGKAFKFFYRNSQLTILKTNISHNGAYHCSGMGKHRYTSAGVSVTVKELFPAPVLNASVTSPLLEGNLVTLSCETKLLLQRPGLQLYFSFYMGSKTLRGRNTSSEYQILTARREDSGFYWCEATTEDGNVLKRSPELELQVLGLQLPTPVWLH

B1: Rituximab (antibody)
VH: not shown
VL: QIVLSQSPAILSASPGEKVTMTCRASSSVSYIHWFQQKPGSSPKPWIYATSNLASGVPVRFSGSGSGTSYSLTISRVEAEDAATYYCQQWTSNPPTFGGGTKLEIKRTVAAPSVFIFPPSDEQLKSGTASVVCLLNNFYPREAKVQWKVDNALQSGNSQESVTEQDSKDSTYSLSSTLTLSKADYEKHKVYACEVTHQGLSSPVTKSFNRGEC
One may read the Kd as a measure of binding affinity in units of concentration. With B1, the Kd with cynomolgus monkey CD64 [1] is under 0.02 nM.

B2: Tafasitamab (antibody, human IgG1, kappa)
heavy: EVQLVESGGGLVKPGGSLKLSCAASGYTFTSYVMHWVRQAPGKGLEWIGYINPYNDGTKYNEKFQGRVTISSDKSISTAYMELSSLRSEDTAMYYCARGTYYYGTRVFDYWGQGTLVTVSSASTKGPSVFPLAPSSKSTSGGTAALGCLVKDYFPEPVTVSWNSGALTSGVHTFPAVLQSSGLYSLSSVVTVPSSSLGTQTYICNVNHKPSNTKVDKKVEPKSCDKTHTCPPCPAPELLGGPDVFLFPPKPKDTLMISRTPEVTCVVVDVSHEDPEVQFNWYVDGVEVHNAKTKPREEQFNSTFRVVSVLTVVHQDWLNGKEYKCKVSNKALPAPEEKTISKTKGQPREPQVYTLPPSREEMTKNQVSLTCLVKGFYPSDIAVEWESNGQPENNYKTTPPMLDSDGSFFLYSKLTVDKSRWQQGNVFSCSVMHEALHNHYTQKSLSLSPG
light: DIVMTQSPATLSLSPGERATLSCRSSKSLQNVNGNTYLYWFQQKPGQSPQLLIYRMSNLNSGVPDRFSGSGSGTEFTLTISSLEPEDFAVYYCMQHLEYPITFGAGTKLEIKRTVAAPSVFIFPPSDEQLKSGTASVVCLLNNFYPREAKVQWKVDNALQSGNSQESVTEQDSKDSTYSLSSTLTLSKADYEKHKVYACEVTHQGLSSPVTKSFNRGEC
B2: the Kd in the test with cynomolgus monkey CD32a [2] was 181 nM; with cynomolgus monkey CD32b [3], 152 nM; in the test with cynomolgus monkey CD64 [4] it was 1.8 nM; with cynomolgus monkey CD32a [5], 76.2 nM; with cynomolgus monkey CD32b [6], 53 nM; with cynomolgus monkey CD64 [1] it was under 0.02 nM.

B3: HB2198 (bispecific antibody, human IgG1, kappa)
heavy 1: QVQLVQSGGGVVQPGRSLRLSCAASGVSLPDYGVSWVRKAPGKGLEWVAVIWGSETTYYNSALKSRFTISRDNSKNTLYLQMSSLRAEDTAVYYCAKHYYYGGSFAMDYWGQGTLVTVSSASTKGPSVFPLAPSSKSTSGGTAALGCLVKDYFPEPVTVSWNSGALTSGVHTFPAVLQSSGLYSLESVVTVPSSSLGTQTYICNVNHKPSNTKVDKKVEPKSCTDWSPYADQSIKVRISLKSALGDKAYEWNDNEMYLFRSSVAYAMRQYFLKVKNQMILFGEEDVRVANLKPRISFNFFVTAPKNVSDIIPRTEVEKAIRMSRSRINDAFRLNDNSLEFLGIQPTLGPPNQPPVSTSTSPTRSMAPGAVHLPQPVSTRDKTHTCPPCPAPELLGGPDVFLFPPKPKDTLMISRTPEVTCVVVDVSHEDPEVKFNWYVDGVEVHNAKTKPREEQYNSTYRVVSVLTVLHQDWLNGKEYKCKVSNKALPAPEEKTISKAKGQPREPQVCTLPPSRDELTKNQVSLSCAVKGFYPSDIAVEWESNGQPENNYKTTPPVLDSDGSFFLVSKLTVDKSRWQQGNVFSCSVMHEALHNRFTQKSLSLSPG
heavy 2: QIVLSQSPAILSASPGEKVTMTCRASSSVSYIHWFQKKPGSSPKPWIYATSNLASGVPVRFSGSGSGTSYSLTISRVEAEDAATYYCQQWTSNPPTFGGGTKVEIKSSASTKGPSVFPLAPSSKSTSGGTAALGCLVKDYFPEPVTVSWNSGALTSGVHTFPAVLQSSGLYSLKSVVTVPSSSLGTQTYICNVNHKPSNTKVDKKVEPKSCDKTHTCPPCPAPELLGGPDVFLFPPKPKDTLMISRTPEVTCVVVDVSHEDPEVKFNWYVDGVEVHNAKTKPREEQYNSTYRVVSVLTVLHQDWLNGKEYKCKVSNKALPAPEEKTISKAKGQPREPQVYTLPPCRDELTKNQVSLWCLVKGFYPSDIAVEWESNGQPENNYKTTPPVLDSDGSFFLYSKLTVDKSRWQQGNVFSCSVMHEALHNHYTQKSLSLSPG
light 1: DIQMTQSPSSLSASVGDRVTITCRASQDISKYLNWYQEKPGKAIKLLIYHTSRLHSGVPSRFSGSGSGTDFTLTISSLQPEDFATYYCQQGATLPYTFGPGTKLEIKRTVAAPSVFIFPPSDEQLKSGTASVKCLLNNFYPREAKVQWKVDNALQSGNSQESVTEQDSKDSTYSLSSTLTLSKADYEKHKVYACEVTHQGLSSPVTKSFNRGEC
light 2: QVQLQQPGAELVKPGASVKMSCKASGYTFTSYNMHWVKETPGRGLEWIGAIYPGNGDTSYNQKFKGKATLTADKSSSTAYMQLSSLTSEDSAVYYCARSTYYGGDWYFNVWGAGTLVTVSSASVAAPSVFIFPPSDEQLKSGTASVECLLNNFYPREAKVQWKVDNALQSGNSQESVTEQDSKDSTYSLSSTLTLSKADYEKHKVYACEVTHQGLSSPVTKSFNRGEC
As for B3, the Kd with cynomolgus monkey CD32a [2] is 4 nM; with cynomolgus monkey CD32b [3] it was 3.4 nM; with cynomolgus monkey CD64 [4], under 0.02 nM; with cynomolgus monkey CD32a [5] it was 305 nM; with cynomolgus monkey CD32b [6], 218 nM; in the test with cynomolgus monkey CD64 [1] it was under 0.02 nM.

Values taken from patent US20250179183A1 (BIOMOLECULAR, published 2025).
